The results in this text go back to US20150368311A1 (Sanofi, published 2015).

Holding throughout (experiment): cell-based or functional assay
Assay [1] concerns the target T1, human GLP-1 receptor (human, UniProt P43220 24-463).
Assay [2] addresses T2, human glucagon receptor (human, UniProt P47871 26-477).
Assay [3] concerns the target T1, human GLP-1 receptor. This is another data set of the same source.
The target in assay [4] is T2, human glucagon receptor. This is another data set of the same source.

Non-standard residues stand in square brackets, D forms with d. No end group written: not given here. Ala(4-thiazolyl) = N[C@@H](Cc1cscn1)C(=O)O; Phg = N[C@H](C(=O)O)c1ccccc1; Nle = CCCC[C@H](N)C(=O)O

T2 sequence (P47871 26-477): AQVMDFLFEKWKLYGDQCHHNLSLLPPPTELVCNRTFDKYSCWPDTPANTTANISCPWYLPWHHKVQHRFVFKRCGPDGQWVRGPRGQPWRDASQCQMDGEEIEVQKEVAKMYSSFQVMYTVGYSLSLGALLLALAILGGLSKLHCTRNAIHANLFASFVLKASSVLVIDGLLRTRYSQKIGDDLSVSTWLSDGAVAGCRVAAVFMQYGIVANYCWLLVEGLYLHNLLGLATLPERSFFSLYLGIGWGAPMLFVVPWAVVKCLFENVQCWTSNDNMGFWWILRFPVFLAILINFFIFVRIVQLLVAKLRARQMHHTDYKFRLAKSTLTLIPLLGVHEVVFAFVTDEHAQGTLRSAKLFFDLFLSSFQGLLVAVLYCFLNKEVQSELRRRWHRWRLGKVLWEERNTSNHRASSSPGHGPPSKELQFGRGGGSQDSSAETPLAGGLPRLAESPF

B1: SEQ ID NO: 6 (peptide)
peptide: [Ala(4-thiazolyl)]SQGTFTSDYSKQLESRRAQEFIEWLLATGPESGAPPPS-OH
modifications: N-terminus assumed
SMILES: CC[C@H](C)[C@H](NC(=O)[C@H](Cc1ccccc1)NC(=O)[C@H](CCC(=O)O)NC(=O)[C@H](CCC(N)=O)NC(=O)[C@H](C)NC(=O)[C@H](CCCNC(=N)N)NC(=O)[C@H](CCCNC(=N)N)NC(=O)[C@H](CO)NC(=O)[C@H](CCC(=O)O)NC(=O)[C@H](CC(C)C)NC(=O)[C@H](CCC(N)=O)NC(=O)[C@H](CCCCN)NC(=O)[C@H](CO)NC(=O)[C@H](Cc1ccc(O)cc1)NC(=O)[C@H](CC(=O)O)NC(=O)[C@H](CO)NC(=O)[C@@H](NC(=O)[C@H](Cc1ccccc1)NC(=O)[C@@H](NC(=O)CNC(=O)[C@H](CCC(N)=O)NC(=O)[C@H](CO)NC(=O)[C@@H](N)Cc1cscn1)[C@@H](C)O)[C@@H](C)O)C(=O)N[C@@H](CCC(=O)O)C(=O)N[C@@H](Cc1c[nH]c2ccccc12)C(=O)N[C@@H](CC(C)C)C(=O)N[C@@H](CC(C)C)C(=O)N[C@@H](C)C(=O)N[C@H](C(=O)NCC(=O)N1CCC[C@H]1C(=O)N[C@@H](CCC(=O)O)C(=O)N[C@@H](CO)C(=O)NCC(=O)N[C@@H](C)C(=O)N1CCC[C@H]1C(=O)N1CCC[C@H]1C(=O)N1CCC[C@H]1C(=O)N[C@@H](CO)C(=O)O)[C@@H](C)O
In the case of B1, the “EC50 hGLP-1R, cAMP formation” value with human GLP-1 receptor [1] stood at 9.3 nM. Further, the “EC50 hGlucagon-R, cAMP formation” value with human glucagon receptor [2] came to 0.0005 nM. The “EC50 hGLP-1 R [pM], cAMP formation” value in the assay with human GLP-1 receptor [3] is 9300 pM. Besides, in the assay with human glucagon receptor [4], the “EC50 hGLUC R [pM], cAMP formation” value turned out to be 0.5 pM.

B2: SEQ ID NO: 36 (peptide)
peptide: HSQGTFTSDLSKQ[Nle]ESRRAQEFIEWLLATGPESGAPPPS-OH
modifications: N-terminus assumed
SMILES: CCCC[C@H](NC(=O)[C@H](CCC(N)=O)NC(=O)[C@H](CCCCN)NC(=O)[C@H](CO)NC(=O)[C@H](CC(C)C)NC(=O)[C@H](CC(=O)O)NC(=O)[C@H](CO)NC(=O)[C@@H](NC(=O)[C@H](Cc1ccccc1)NC(=O)[C@@H](NC(=O)CNC(=O)[C@H](CCC(N)=O)NC(=O)[C@H](CO)NC(=O)[C@@H](N)Cc1c[nH]cn1)[C@@H](C)O)[C@@H](C)O)C(=O)N[C@@H](CCC(=O)O)C(=O)N[C@@H](CO)C(=O)N[C@@H](CCCNC(=N)N)C(=O)N[C@@H](CCCNC(=N)N)C(=O)N[C@@H](C)C(=O)N[C@@H](CCC(N)=O)C(=O)N[C@@H](CCC(=O)O)C(=O)N[C@@H](Cc1ccccc1)C(=O)N[C@H](C(=O)N[C@@H](CCC(=O)O)C(=O)N[C@@H](Cc1c[nH]c2ccccc12)C(=O)N[C@@H](CC(C)C)C(=O)N[C@@H](CC(C)C)C(=O)N[C@@H](C)C(=O)N[C@H](C(=O)NCC(=O)N1CCC[C@H]1C(=O)N[C@@H](CCC(=O)O)C(=O)N[C@@H](CO)C(=O)NCC(=O)N[C@@H](C)C(=O)N1CCC[C@H]1C(=O)N1CCC[C@H]1C(=O)N1CCC[C@H]1C(=O)N[C@@H](CO)C(=O)O)[C@@H](C)O)[C@@H](C)CC
For the molecule B2, the “EC50 hGLP-1R, cAMP formation” value in the assay with human GLP-1 receptor [1] stood at 0.358 nM. For the same molecule, the “EC50 hGlucagon-R, cAMP formation” value with human glucagon receptor [2] turned out to be 0.0014 nM.

B3: SEQ ID NO: 8 (peptide)
peptide: [Ala(4-thiazolyl)]SQGTFTSDISKQLESRRAQEFIEWLLATGPESGAPPPS-OH
modifications: N-terminus assumed
SMILES: CC[C@H](C)[C@H](NC(=O)[C@H](Cc1ccccc1)NC(=O)[C@H](CCC(=O)O)NC(=O)[C@H](CCC(N)=O)NC(=O)[C@H](C)NC(=O)[C@H](CCCNC(=N)N)NC(=O)[C@H](CCCNC(=N)N)NC(=O)[C@H](CO)NC(=O)[C@H](CCC(=O)O)NC(=O)[C@H](CC(C)C)NC(=O)[C@H](CCC(N)=O)NC(=O)[C@H](CCCCN)NC(=O)[C@H](CO)NC(=O)[C@@H](NC(=O)[C@H](CC(=O)O)NC(=O)[C@H](CO)NC(=O)[C@@H](NC(=O)[C@H](Cc1ccccc1)NC(=O)[C@@H](NC(=O)CNC(=O)[C@H](CCC(N)=O)NC(=O)[C@H](CO)NC(=O)[C@@H](N)Cc1cscn1)[C@@H](C)O)[C@@H](C)O)[C@@H](C)CC)C(=O)N[C@@H](CCC(=O)O)C(=O)N[C@@H](Cc1c[nH]c2ccccc12)C(=O)N[C@@H](CC(C)C)C(=O)N[C@@H](CC(C)C)C(=O)N[C@@H](C)C(=O)N[C@H](C(=O)NCC(=O)N1CCC[C@H]1C(=O)N[C@@H](CCC(=O)O)C(=O)N[C@@H](CO)C(=O)NCC(=O)N[C@@H](C)C(=O)N1CCC[C@H]1C(=O)N1CCC[C@H]1C(=O)N1CCC[C@H]1C(=O)N[C@@H](CO)C(=O)O)[C@@H](C)O
For B3, the “EC50 hGLP-1R, cAMP formation” value with human GLP-1 receptor [1] was found to be 5.8 nM. Also, in the assay with human glucagon receptor [2], the “EC50 hGlucagon-R, cAMP formation” value is 0.0022 nM. Besides, the “EC50 hGLP-1 R [pM], cAMP formation” value in the assay with human GLP-1 receptor [3] came out at 5800 pM. Moreover, the “EC50 hGLUC R [pM], cAMP formation” value in the assay with human glucagon receptor [4] was 2.2 pM.

B4: SEQ ID NO: 7 (peptide)
peptide: [Ala(4-thiazolyl)]SQGTFTSDVSKQLESRRAQEFIEWLLATGPESGAPPPS-OH
modifications: N-terminus assumed
SMILES: CC[C@H](C)[C@H](NC(=O)[C@H](Cc1ccccc1)NC(=O)[C@H](CCC(=O)O)NC(=O)[C@H](CCC(N)=O)NC(=O)[C@H](C)NC(=O)[C@H](CCCNC(=N)N)NC(=O)[C@H](CCCNC(=N)N)NC(=O)[C@H](CO)NC(=O)[C@H](CCC(=O)O)NC(=O)[C@H](CC(C)C)NC(=O)[C@H](CCC(N)=O)NC(=O)[C@H](CCCCN)NC(=O)[C@H](CO)NC(=O)[C@@H](NC(=O)[C@H](CC(=O)O)NC(=O)[C@H](CO)NC(=O)[C@@H](NC(=O)[C@H](Cc1ccccc1)NC(=O)[C@@H](NC(=O)CNC(=O)[C@H](CCC(N)=O)NC(=O)[C@H](CO)NC(=O)[C@@H](N)Cc1cscn1)[C@@H](C)O)[C@@H](C)O)C(C)C)C(=O)N[C@@H](CCC(=O)O)C(=O)N[C@@H](Cc1c[nH]c2ccccc12)C(=O)N[C@@H](CC(C)C)C(=O)N[C@@H](CC(C)C)C(=O)N[C@@H](C)C(=O)N[C@H](C(=O)NCC(=O)N1CCC[C@H]1C(=O)N[C@@H](CCC(=O)O)C(=O)N[C@@H](CO)C(=O)NCC(=O)N[C@@H](C)C(=O)N1CCC[C@H]1C(=O)N1CCC[C@H]1C(=O)N1CCC[C@H]1C(=O)N[C@@H](CO)C(=O)O)[C@@H](C)O
For B4, the “EC50 hGLP-1R, cAMP formation” value with human GLP-1 receptor [1] was 4.19 nM. Besides, in the assay with human glucagon receptor [2], the “EC50 hGlucagon-R, cAMP formation” value was 0.0024 nM. Besides, in the assay with human GLP-1 receptor [3], the “EC50 hGLP-1 R [pM], cAMP formation” value was 4190 pM. Moreover, the “EC50 hGLUC R [pM], cAMP formation” value in the assay with human glucagon receptor [4] came to 2.4 pM.

B5: SEQ ID NO: 10 (peptide)
peptide: [Ala(4-thiazolyl)]SQGTFTSD[Phg]SKQLESRRAQEFIEWLLATGPESGAPPPS-OH
modifications: N-terminus assumed
SMILES: CC[C@H](C)[C@H](NC(=O)[C@H](Cc1ccccc1)NC(=O)[C@H](CCC(=O)O)NC(=O)[C@H](CCC(N)=O)NC(=O)[C@H](C)NC(=O)[C@H](CCCNC(=N)N)NC(=O)[C@H](CCCNC(=N)N)NC(=O)[C@H](CO)NC(=O)[C@H](CCC(=O)O)NC(=O)[C@H](CC(C)C)NC(=O)[C@H](CCC(N)=O)NC(=O)[C@H](CCCCN)NC(=O)[C@H](CO)NC(=O)[C@@H](NC(=O)[C@H](CC(=O)O)NC(=O)[C@H](CO)NC(=O)[C@@H](NC(=O)[C@H](Cc1ccccc1)NC(=O)[C@@H](NC(=O)CNC(=O)[C@H](CCC(N)=O)NC(=O)[C@H](CO)NC(=O)[C@@H](N)Cc1cscn1)[C@@H](C)O)[C@@H](C)O)c1ccccc1)C(=O)N[C@@H](CCC(=O)O)C(=O)N[C@@H](Cc1c[nH]c2ccccc12)C(=O)N[C@@H](CC(C)C)C(=O)N[C@@H](CC(C)C)C(=O)N[C@@H](C)C(=O)N[C@H](C(=O)NCC(=O)N1CCC[C@H]1C(=O)N[C@@H](CCC(=O)O)C(=O)N[C@@H](CO)C(=O)NCC(=O)N[C@@H](C)C(=O)N1CCC[C@H]1C(=O)N1CCC[C@H]1C(=O)N1CCC[C@H]1C(=O)N[C@@H](CO)C(=O)O)[C@@H](C)O
On to B5, for which the “EC50 hGLP-1R, cAMP formation” value with human GLP-1 receptor [1] was determined as 45 nM. For the same molecule, the “EC50 hGlucagon-R, cAMP formation” value with human glucagon receptor [2] amounted to 0.006 nM. In addition, the “EC50 hGLP-1 R [pM], cAMP formation” value in the assay with human GLP-1 receptor [3] came out at 45000 pM. Moreover, in the assay with human glucagon receptor [4], the “EC50 hGLUC R [pM], cAMP formation” value was 6 pM.

B6: SEQ ID NO: 5 (peptide)
peptide: [Ala(4-thiazolyl)]SQGTFTSDYSKQLESRRAQEFIEWLLAGGPESGAPPPS-OH
modifications: N-terminus assumed
SMILES: CC[C@H](C)[C@H](NC(=O)[C@H](Cc1ccccc1)NC(=O)[C@H](CCC(=O)O)NC(=O)[C@H](CCC(N)=O)NC(=O)[C@H](C)NC(=O)[C@H](CCCNC(=N)N)NC(=O)[C@H](CCCNC(=N)N)NC(=O)[C@H](CO)NC(=O)[C@H](CCC(=O)O)NC(=O)[C@H](CC(C)C)NC(=O)[C@H](CCC(N)=O)NC(=O)[C@H](CCCCN)NC(=O)[C@H](CO)NC(=O)[C@H](Cc1ccc(O)cc1)NC(=O)[C@H](CC(=O)O)NC(=O)[C@H](CO)NC(=O)[C@@H](NC(=O)[C@H](Cc1ccccc1)NC(=O)[C@@H](NC(=O)CNC(=O)[C@H](CCC(N)=O)NC(=O)[C@H](CO)NC(=O)[C@@H](N)Cc1cscn1)[C@@H](C)O)[C@@H](C)O)C(=O)N[C@@H](CCC(=O)O)C(=O)N[C@@H](Cc1c[nH]c2ccccc12)C(=O)N[C@@H](CC(C)C)C(=O)N[C@@H](CC(C)C)C(=O)N[C@@H](C)C(=O)NCC(=O)NCC(=O)N1CCC[C@H]1C(=O)N[C@@H](CCC(=O)O)C(=O)N[C@@H](CO)C(=O)NCC(=O)N[C@@H](C)C(=O)N1CCC[C@H]1C(=O)N1CCC[C@H]1C(=O)N1CCC[C@H]1C(=O)N[C@@H](CO)C(=O)O
On to B6, for which the “EC50 hGLP-1R, cAMP formation” value in the assay with human GLP-1 receptor [1] stood at 2.19 nM. The “EC50 hGlucagon-R, cAMP formation” value in the assay with human glucagon receptor [2] amounted to 0.0006 nM. In addition, the “EC50 hGLP-1 R [pM], cAMP formation” value in the assay with human GLP-1 receptor [3] turned out to be 2190 pM. Further, the “EC50 hGLUC R [pM], cAMP formation” value in the assay with human glucagon receptor [4] was 0.6 pM.
